Assays:
[1] = biological target: T1, recombinant human SOD1^WT, 6His-tagged (N-term), expressed in E. coli (human, UniProt P00441 2-154, in the MST assay labeled with BLUE fluorescent dye NT-495-NHS (lysine chemistry)); assay: MST instrument, fluorescence change of labeled SOD1^WT (200 nM), peptide 0-100 µM
T1 construct: also called wild type SOD1; not shown: N-terminal 6His tag from pHIS1 vector

[2] = biological target: T2, recombinant human SOD1^G93A, 6His-tagged (N-term), expressed in E. coli (human, UniProt P00441 2-154, G93A, in the MST assay labeled with BLUE fluorescent dye NT-495-NHS (lysine chemistry)); assay: MST instrument, fluorescence change of labeled SOD1^G93A (300 nM), peptide 0-100 µM
T2 construct: Dimer by gel filtration, partially monomerizes and precipitates at 37 C; also called SOD1M; not shown: N-terminal 6His tag from pHIS1 vector
T2 sequence (P00441 2-154 G94A): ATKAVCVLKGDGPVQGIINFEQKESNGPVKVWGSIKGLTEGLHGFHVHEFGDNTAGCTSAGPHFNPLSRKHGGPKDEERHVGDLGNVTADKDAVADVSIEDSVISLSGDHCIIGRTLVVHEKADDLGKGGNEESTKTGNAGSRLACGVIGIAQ

[3] = biological target: T1, recombinant human SOD1^WT, 6His-tagged …; assay: MST fluorescence change, labeled SOD1^WT 200 nM
Procedure: The assessment of peptide binding to the proteins was carried out using Monolith NT.115 (NanoTemper Technologies, Munchen, Germany). […] The final concentration of either DMSO or DMF in the binding buffer was 1%. […] The binding data were analyzed by a non-linear regression using a logistic (three parameter) function implemented in Prism6 (GraphPad) program.
The binding of synthetic peptides to fluorescently labeled SOD1^WT or SOD1^G93A was assessed using a microscale thermophoresis technique (MST).

T1 sequence (P00441 2-154): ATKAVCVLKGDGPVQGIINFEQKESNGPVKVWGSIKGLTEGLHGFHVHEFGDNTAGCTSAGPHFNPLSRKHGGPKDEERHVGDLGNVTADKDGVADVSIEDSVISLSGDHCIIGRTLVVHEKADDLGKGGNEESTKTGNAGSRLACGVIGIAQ

binding result [1]	binding result [2]	binding result [3]	Binder
binds	binds		LSGDHCIIGRTLVVHEKADD (Synthesized by GL Biochem; purity >90%) [peptide SE-12 (SOD1 aa. 106-125)]
	binds	no binding (tested: peptide 0-100 µM)	DKDGVADVSIEDSVISLSGD (Synthesized by GL Biochem; purity >90%) [peptide SE-11 (SOD1 aa. 90-109)]
